Measured values as given in patent US20210220450A1, “TREATMENT OF AN IOP CONDITION” (The Research Foundation for The State University of New York, priority 2013, published 2021).

Key:
[1] = molecular target: N-methyl-D-aspartate receptor (NMDAR); test: cell-based or functional assay
[2] = molecular target: low-density-lipoprotein receptor-related protein 1 (LRP-1) (UniProt Q07954); test: cell-based or functional assay
Chain of UniProt Q07954 (Q07954 20-4544 limits assumed): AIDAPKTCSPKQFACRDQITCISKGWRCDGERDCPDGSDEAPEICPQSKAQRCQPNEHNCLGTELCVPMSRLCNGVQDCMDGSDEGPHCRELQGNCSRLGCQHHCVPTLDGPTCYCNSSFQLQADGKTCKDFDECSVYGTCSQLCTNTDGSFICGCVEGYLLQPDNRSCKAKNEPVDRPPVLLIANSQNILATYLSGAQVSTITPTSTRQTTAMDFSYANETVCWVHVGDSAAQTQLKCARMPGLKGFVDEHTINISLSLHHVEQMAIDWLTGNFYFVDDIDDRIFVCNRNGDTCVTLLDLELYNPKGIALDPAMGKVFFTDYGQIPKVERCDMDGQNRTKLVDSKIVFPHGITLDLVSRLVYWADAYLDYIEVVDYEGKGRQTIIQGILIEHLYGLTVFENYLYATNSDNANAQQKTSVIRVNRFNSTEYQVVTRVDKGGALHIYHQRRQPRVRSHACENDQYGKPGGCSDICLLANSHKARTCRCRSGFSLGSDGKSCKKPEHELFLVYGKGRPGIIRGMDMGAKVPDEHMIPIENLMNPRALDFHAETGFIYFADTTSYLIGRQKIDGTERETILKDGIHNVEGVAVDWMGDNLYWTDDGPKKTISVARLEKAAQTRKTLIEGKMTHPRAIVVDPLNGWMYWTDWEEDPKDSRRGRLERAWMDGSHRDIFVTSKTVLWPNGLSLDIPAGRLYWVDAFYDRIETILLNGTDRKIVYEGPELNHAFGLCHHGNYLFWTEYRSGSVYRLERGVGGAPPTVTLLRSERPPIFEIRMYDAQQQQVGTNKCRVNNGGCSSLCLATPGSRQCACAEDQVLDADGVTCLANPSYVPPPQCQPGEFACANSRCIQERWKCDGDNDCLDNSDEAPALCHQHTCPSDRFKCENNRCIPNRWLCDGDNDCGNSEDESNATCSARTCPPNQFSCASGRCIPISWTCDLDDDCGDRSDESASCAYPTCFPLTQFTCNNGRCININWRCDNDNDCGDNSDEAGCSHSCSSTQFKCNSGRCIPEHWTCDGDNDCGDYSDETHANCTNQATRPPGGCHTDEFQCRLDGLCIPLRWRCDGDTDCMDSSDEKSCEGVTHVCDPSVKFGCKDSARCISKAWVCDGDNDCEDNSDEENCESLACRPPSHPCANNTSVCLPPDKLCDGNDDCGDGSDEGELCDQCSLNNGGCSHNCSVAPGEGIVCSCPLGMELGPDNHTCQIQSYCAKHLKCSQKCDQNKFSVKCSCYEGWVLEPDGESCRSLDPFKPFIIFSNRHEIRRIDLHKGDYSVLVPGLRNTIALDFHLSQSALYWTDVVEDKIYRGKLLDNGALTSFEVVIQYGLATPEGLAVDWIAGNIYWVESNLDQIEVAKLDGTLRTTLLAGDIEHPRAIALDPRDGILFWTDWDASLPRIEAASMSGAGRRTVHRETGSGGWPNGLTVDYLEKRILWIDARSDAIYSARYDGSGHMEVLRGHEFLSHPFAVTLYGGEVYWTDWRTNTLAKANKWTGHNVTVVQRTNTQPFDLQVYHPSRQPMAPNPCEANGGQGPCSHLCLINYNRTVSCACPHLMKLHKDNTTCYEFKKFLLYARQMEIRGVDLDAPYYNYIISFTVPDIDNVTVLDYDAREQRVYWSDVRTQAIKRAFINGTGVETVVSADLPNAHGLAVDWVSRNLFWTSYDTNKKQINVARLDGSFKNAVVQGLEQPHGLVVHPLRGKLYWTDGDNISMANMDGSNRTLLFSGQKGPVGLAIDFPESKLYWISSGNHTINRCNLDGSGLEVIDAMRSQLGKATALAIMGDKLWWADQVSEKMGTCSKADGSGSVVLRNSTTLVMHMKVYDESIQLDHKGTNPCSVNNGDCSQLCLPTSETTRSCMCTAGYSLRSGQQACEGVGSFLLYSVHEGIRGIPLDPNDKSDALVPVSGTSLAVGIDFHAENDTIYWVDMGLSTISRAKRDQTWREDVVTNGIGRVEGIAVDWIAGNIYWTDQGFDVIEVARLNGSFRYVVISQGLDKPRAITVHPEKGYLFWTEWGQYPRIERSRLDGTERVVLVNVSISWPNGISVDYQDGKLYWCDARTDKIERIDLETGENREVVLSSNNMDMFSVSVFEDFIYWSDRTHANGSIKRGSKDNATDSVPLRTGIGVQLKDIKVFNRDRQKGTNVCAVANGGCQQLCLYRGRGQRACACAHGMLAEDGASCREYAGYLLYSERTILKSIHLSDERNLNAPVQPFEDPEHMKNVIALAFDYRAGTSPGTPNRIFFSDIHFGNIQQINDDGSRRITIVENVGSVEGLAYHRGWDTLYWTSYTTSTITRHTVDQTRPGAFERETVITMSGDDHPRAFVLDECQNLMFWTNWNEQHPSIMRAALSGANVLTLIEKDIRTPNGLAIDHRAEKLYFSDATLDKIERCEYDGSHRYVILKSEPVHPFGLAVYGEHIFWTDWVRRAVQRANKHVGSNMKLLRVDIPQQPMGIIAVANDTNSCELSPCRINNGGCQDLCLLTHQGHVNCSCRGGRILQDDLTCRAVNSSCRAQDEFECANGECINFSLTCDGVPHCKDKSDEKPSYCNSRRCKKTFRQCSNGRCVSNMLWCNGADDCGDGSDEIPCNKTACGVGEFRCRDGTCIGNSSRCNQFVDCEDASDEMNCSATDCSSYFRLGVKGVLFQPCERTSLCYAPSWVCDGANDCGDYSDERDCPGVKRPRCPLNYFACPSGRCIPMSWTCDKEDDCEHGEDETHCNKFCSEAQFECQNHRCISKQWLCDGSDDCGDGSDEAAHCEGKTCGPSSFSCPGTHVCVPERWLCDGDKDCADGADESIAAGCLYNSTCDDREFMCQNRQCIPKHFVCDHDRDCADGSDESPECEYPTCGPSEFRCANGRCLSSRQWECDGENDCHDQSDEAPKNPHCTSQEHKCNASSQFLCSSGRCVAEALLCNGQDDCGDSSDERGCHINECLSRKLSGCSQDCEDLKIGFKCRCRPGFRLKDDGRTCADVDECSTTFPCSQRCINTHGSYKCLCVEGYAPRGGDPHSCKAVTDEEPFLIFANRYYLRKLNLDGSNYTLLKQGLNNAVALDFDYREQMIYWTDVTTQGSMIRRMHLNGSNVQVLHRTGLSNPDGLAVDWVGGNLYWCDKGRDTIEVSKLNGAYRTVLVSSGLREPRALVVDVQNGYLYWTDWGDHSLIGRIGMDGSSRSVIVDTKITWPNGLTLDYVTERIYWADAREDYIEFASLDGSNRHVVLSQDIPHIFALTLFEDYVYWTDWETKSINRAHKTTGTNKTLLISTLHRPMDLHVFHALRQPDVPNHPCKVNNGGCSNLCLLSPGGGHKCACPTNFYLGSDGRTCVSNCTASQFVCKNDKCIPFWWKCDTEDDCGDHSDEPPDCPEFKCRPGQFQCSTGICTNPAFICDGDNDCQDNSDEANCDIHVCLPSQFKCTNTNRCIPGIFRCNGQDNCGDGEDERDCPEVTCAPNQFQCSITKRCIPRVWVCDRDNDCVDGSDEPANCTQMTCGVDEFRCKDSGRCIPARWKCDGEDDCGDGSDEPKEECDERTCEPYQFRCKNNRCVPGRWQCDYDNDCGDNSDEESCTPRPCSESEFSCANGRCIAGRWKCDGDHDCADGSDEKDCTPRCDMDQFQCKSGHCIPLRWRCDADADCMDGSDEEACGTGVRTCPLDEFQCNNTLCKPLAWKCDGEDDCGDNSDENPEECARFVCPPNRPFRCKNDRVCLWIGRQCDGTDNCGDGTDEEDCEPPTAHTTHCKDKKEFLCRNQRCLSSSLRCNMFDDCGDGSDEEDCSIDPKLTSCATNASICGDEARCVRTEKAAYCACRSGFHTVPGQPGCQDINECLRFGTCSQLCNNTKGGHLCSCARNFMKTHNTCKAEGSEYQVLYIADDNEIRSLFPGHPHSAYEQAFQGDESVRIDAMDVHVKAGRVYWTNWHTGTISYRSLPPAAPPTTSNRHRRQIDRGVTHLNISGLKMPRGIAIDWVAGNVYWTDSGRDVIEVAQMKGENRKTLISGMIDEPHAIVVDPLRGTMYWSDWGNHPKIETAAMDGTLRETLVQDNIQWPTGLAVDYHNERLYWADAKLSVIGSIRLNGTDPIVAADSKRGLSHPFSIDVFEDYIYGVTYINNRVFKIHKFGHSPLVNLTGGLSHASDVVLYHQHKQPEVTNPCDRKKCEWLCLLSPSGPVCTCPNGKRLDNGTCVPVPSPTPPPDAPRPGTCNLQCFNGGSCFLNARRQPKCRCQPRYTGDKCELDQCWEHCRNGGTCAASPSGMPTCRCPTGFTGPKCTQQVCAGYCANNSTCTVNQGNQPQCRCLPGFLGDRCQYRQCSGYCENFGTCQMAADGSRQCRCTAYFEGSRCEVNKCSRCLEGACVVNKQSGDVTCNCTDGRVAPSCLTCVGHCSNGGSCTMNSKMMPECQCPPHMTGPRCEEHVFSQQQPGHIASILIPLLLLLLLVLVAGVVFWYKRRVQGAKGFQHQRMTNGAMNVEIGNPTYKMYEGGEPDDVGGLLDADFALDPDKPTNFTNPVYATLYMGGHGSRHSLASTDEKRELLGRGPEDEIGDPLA

Substance: non-enzymatically active tPA (NE-tPA/S478A-tPA) (from UniProt P00750 36-562)
- Simulated outflow facility of HTM cells in ACOS, PA+NE-tPA (no inhibitor) (µl/min/mmHg/mm^2) [1]: 0.55
- Simulated outflow facility of HTM cells in ACOS, PA+NE-tPA+MK-801 (inhibitor of NMDA receptor) (µl/min/mmHg/mm^2) [1]: 0.29
- Simulated outflow facility of HTM cells in ACOS, PA+NE-tPA+MK-801+RAP (both inhibitors) (µl/min/mmHg/mm^2) [1]: 0.33
- Simulated outflow facility of HTM cells in ACOS, PA+NE-tPA (no inhibitor) (µl/min/mmHg/mm^2) [2]: 0.55
- Simulated outflow facility of HTM cells in ACOS, PA+NE-tPA+MK-801+RAP (both inhibitors) (µl/min/mmHg/mm^2) [2]: 0.33
- Simulated outflow facility of HTM cells in ACOS, PA+NE-tPA+RAP (inhibitor of LRP1) (µl/min/mmHg/mm^2) [2]: 0.27
